Reference: US20160199455

Test system: T1, rBDD FVIII (recombinant B-domain deleted FVIII, REFACTO)
T1 sequence: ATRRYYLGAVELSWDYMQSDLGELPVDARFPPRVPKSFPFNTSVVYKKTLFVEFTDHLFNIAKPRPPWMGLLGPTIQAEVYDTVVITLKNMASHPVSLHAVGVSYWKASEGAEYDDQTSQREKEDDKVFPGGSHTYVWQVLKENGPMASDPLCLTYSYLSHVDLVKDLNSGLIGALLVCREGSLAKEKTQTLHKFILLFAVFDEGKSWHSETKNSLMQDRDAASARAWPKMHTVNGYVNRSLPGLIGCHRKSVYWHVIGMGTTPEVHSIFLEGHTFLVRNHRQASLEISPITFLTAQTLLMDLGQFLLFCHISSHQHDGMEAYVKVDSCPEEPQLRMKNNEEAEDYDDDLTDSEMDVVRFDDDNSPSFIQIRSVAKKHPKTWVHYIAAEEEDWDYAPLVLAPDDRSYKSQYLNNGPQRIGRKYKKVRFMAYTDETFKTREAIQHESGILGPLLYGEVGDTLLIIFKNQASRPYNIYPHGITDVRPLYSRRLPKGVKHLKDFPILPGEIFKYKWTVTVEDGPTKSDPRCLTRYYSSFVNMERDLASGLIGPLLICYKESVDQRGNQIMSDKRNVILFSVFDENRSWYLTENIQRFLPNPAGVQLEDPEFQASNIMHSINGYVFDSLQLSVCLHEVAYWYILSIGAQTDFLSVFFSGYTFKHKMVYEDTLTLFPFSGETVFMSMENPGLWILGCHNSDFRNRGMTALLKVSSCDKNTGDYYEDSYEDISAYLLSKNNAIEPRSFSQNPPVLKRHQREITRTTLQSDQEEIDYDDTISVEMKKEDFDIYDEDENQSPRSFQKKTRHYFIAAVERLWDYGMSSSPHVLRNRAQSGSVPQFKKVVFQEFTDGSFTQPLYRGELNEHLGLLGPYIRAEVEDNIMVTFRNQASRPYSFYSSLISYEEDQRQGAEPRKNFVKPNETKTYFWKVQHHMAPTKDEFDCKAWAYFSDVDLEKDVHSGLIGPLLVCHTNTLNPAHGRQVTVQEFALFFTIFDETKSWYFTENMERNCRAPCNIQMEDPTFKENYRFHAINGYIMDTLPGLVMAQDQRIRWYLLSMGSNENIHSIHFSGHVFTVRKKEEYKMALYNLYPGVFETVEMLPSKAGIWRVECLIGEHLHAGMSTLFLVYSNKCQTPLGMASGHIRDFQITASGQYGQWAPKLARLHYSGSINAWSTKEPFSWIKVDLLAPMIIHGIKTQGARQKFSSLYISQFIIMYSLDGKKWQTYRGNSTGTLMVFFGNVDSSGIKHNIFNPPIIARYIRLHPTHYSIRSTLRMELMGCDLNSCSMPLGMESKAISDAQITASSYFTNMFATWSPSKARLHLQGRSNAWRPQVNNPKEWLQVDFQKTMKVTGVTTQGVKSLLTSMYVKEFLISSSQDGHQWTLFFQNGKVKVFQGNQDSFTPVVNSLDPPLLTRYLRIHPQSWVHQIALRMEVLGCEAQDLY

| Substance | Km (activation of Factor X by the Xase complex) | Vmax (activation of Factor X by the Xase complex) | Vmax (FXa generation, varying FIXa) |
| --- | --- | --- | --- |
| Factor X (FX) | 0.051 µM | 73.5 nM/min |  |
| activated Factor IX (FIXa) |  |  | 4 nM/min |
